Earlier results, collected in patent US12514872B2, “Polycationic polymers for use in treating and detecting cancer” (Duke University, priority 2015, dated 2026).

B1: DNAse I: enzyme used in a cited PC study to treat tumor cells associated with extracellular DNA (protein, UniProt P24855 23-282, looked up)
Deoxyribonuclease-1: LKIAAFNIQTFGETKMSNATLVSYIVQILSRYDIALVQEVRDSHLTAVGKLLDNLNQDAPDTYHYVVSEPLGRNSYKERYLFVYRPDQVSAVDSYYYDDGCEPCGNDTFNREPAIVRFFSRFTEVREFAIVPLHAAPGDAVAEIDALYDVYLDVQEKWGLEDVMLMGDFNAGCSYVRPSQWSSIRLWTSPTFQWLIPDSADTTATPTHCAYDRIVVAGMLLRGAVVPDSALPFNFQAAYGLSDQLAQAISDHYPVEVMLK

Experiments:
[1] = system: RNA oligonucleotide coagulation-factor inhibitors (aptamers); settings: previous work, WO2008/121354
PC tumor cell lines = settings: in vitro
[2] = system: orthotopic xenograft pancreatic tumors

| Molecule | reversal of anticoagulant activity of aptamers [1] | cell invasion, migration and adhesion (PC tumor cell lines) | tumor metastasis [2] |
| --- | --- | --- | --- |
| protamine sulfate | reverse the anticoagulant activity | – | – |
| B1 | – | reduced cell invasion, migration, and adhesion | reduction in tumor metastasis |
